How the values were obtained:
Format in all cases: cell-based
CCR5 = target: T1, CCR5 (Homo sapiens, UniProt P51681); test: Chemotaxis assay (48-well microchemotaxis chamber) of HEK293 cells transfected with CCR5; conditions: for chemotaxis induced after PTX pretreatment: CCR5-transfected HEK293 cells treated with 100 ng/ml PTX at 37° C. for 30 min; for desensitization of the receptor to subsequent stimulation with RANTES, C27 or C19 (chemotaxis): HEK293/CCR5, pretreatment 1 mM RANTES or 2 μg/ml C27 or C19, 37° C., 30 min
T1 construct: The cDNA fragments covering the open reading frames for various chemokine receptors were obtained as follows; expressed in transfected cells; host or cells: HEK293 (transient, electroporation)
Description: (§1) HEK293 cells were grown in RPMI 1640 supplemented with 10% heat-inactivated FBS, penicillin (100 U/ml) and streptomycin (100 μg/ml). Every 4×10^6 HEK293 cells in 400 μl were transiently transfected by electroporation with 15 μg of the expression plasmid at 120 V, 20 ms using an electric pulse generator (Electro Square Porator ECM 830, BTX, San Diego, Calif.), and calcium mobilization assay and chemotaxis assays were performed 48 hours later.
The chemotaxis assay was performed using a 48-well microchemotaxis chamber (Neutroprobe; Cabin John, Md., U.S.A.). Chemoattractants were diluted in HEPES-buffered RPMI 1640 medium supplemented with 0.1% BSA and placed in the lower wells (28 μl/well). HEK293 cells transfected with pcDI-CCR4, -CCR5 were resuspended in the same medium at 2×10^6 cells/ml and added to the upper wells (50 μl/well), which were separated from the lower wells by a polyvinylpyrrolidone-free polycarbonate filter with 8-μm pores. The chamber was incubated for 2 hours at 37° C. in 5% CO2 and 95% air. Filters were removed from the chamber, washed, fixed, and stained with Three Step Stain Set. Cells that migrated were counted in 5 randomly selected high power fields (400×) per well. The chemotactic index (CI) was calculated from the number of cells that migrated to the control. Significant chemotaxis was defined as CI>2. […]

CCR6 = target: T2, CCR6 (Homo sapiens, UniProt P51684); test: Internalization of CCR6-EGFP in transiently transfected HEK293 cells; conditions: HEK293 cells transfected with pCCR6-EGFP; 37° C., 2 hours
T2 construct: The cDNA fragment covering the open reading frame for CCR6 chemokine receptor was cloned into pEGFP-N1 vector (CLONTECH); expressed in transfected cells; host or cells: HEK293 (transient)
T2 sequence (P51684 1-374): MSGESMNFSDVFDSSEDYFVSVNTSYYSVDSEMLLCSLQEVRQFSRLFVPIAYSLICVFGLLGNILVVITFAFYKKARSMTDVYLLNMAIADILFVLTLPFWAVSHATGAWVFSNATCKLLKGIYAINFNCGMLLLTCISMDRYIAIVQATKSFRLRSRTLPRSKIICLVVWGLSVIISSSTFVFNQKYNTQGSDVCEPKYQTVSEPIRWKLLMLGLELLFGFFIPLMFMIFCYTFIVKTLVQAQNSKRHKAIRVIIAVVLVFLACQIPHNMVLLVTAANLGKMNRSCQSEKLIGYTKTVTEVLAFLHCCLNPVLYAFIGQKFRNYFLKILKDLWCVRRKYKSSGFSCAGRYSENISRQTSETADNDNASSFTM
Description: (§2) The cDNA fragment covering the open reading frame for CCR6 chemokine receptor was cloned into pEGFP-N1 vector (CLONTECH). pCCR6-EGFP transiently expressing HEK293 cells were cultured in glass-bottom dishes in RPMI 1640 with 10% FBS. After 16-24 hours of serum starvation, cells were treated with CKLF1 C-terminal peptides or MIP3α at 37° C. for 2 hours. Cells were washed with cold PBS and fixed with 2% paraformaldehyde in PBS. The subcellular localization of CCR6-EGFP protein was visualized using a Leica TCS-NT confocal fluorescence microscope with a 63× oil immersion lens (Wetzler, Heidelberg, Germany). The excitation and emission wavelengths were 488 and 515-540 nm, respectively.

CCR4 [1] = target: T3, CCR4 (Homo sapiens, UniProt P51679); test: Internalization of CCR4-EGFP in transiently transfected HEK293 cells; conditions: HEK293 cells transfected with pCCR4-EGFP; 37° C., 2 hours
T3 construct: The cDNA fragments covering the open reading frames for various chemokine receptors were obtained as follows; expressed in transfected cells; host or cells: HEK293 (transient, electroporation)
T3 sequence (P51679 1-360): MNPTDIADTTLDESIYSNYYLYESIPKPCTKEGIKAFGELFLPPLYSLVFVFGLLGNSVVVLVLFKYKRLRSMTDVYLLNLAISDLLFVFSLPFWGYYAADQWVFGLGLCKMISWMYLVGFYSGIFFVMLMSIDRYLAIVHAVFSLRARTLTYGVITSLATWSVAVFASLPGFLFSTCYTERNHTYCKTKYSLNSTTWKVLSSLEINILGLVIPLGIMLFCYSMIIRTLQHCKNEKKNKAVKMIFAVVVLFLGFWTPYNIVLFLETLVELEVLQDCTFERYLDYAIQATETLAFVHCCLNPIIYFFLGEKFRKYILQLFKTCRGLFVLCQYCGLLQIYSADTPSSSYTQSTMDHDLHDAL
Description: as §2, with “CCR4” for “CCR6”, “pCCR4-EGFP” for “pCCR6-EGFP”, “16 to 24” for “16-24”, “hours” for “hours of”, “TARC” for “MIP3α”, “CCR4-EGFP” for “CCR6-EGFP”

CCR4 [2] = target: T3, CCR4; test: Chemotaxis assay (48-well microchemotaxis chamber) of HEK293 cells transfected with CCR4; conditions: for chemotaxis induced after PTX pretreatment: CCR4-transfected HEK293 cells treated with 100 ng/ml PTX at 37° C. for 30 min; for desensitization of the receptor to subsequent stimulation with TARC, C27 or C19 (chemotaxis): HEK293/CCR4, pretreatment TARC or 2 μg/ml C27 or C19, 37° C., 30 min
Description: as §1
The chemotaxis assay was performed using a 48-well microchemotaxis chamber (Neutroprobe; Cabin John, Md., U.S.A.). Chemoattractants were diluted in HEPES-buffered RPMI 1640 medium supplemented with 0.1% BSA and placed in the lower wells (28 μl/well). HEK293 cells transfected with pcDI-CCR4, -CCR5 were resuspended in the same medium at 2×10^6 cells/ml and added to the upper wells (50 μl/well), which were separated from the lower wells by a polyvinylpyrrolidone-free polycarbonate filter with 8-μm pores. The chamber was incubated for 2 hours at 37° C. in 5% CO2 and 95% air. Filters were removed from the chamber, washed, fixed, and stained with Three Step Stain Set. Cells that migrated were counted in 5 randomly selected high power fields (400×) per well. The chemotactic index (CI) was calculated from the number of cells that migrated to the control. Significant chemotaxis was defined as CI>2. In some experiments, cells were pretreated with TARC, RANTES, purified CKLF-myc protein or secreted CKLF1 peptides for 30 min. at 37° C., or 100 ng/ml PTX (ALEXIS Biochemicals Corporation) for 6 hours at 37° C. prior to subsequent stimulations.

T1 sequence (P51681 whole entry, the tested form may be a part): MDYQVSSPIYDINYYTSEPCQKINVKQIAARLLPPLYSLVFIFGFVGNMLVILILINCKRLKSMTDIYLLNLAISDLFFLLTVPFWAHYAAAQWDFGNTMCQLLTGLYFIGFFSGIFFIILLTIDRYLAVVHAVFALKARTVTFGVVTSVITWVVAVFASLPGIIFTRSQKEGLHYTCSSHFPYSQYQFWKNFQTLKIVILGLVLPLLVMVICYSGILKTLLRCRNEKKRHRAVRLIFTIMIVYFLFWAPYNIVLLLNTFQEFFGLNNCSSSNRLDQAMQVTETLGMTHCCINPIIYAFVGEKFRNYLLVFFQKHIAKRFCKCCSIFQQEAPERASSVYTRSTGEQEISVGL

Substance | migration (chemotaxis) of transfected cells (CCR5; CCR5-transfected HEK293 cells) | chemotaxis induced after PTX pretreatment (CCR5) | desensitization of the receptor to subsequent stimulation with RANTES, C27 or C19 (chemotaxis) (CCR5) | internalization of CCR6-EGFP (CCR6) | internalization of CCR4-EGFP (CCR4 [1]) | migration (chemotaxis) of transfected cells (CCR4 [2]; CCR4-transfected HEK293 cells) | chemotaxis induced after PTX pretreatment (CCR4 [2]) | desensitization of the receptor to subsequent stimulation with TARC, C27 or C19 (chemotaxis) (CCR4 [2])
ALIYRKL LFNPSGPYQKKPVHEKKEVL (ALIYRKLLFNPSGPYQKKPVHEKKEVL; listed as Homo sapiens) [C27] | could induce migration | completely abolished by PTX | could desensitize the receptor | could induce internalization of CCR6-EGFP | could induce internalization of CCR4-EGFP | could induce migration | completely abolished by PTX | could desensitize the receptor
FNPSGPYQKKPVHEKKEVL (listed as Homo sapiens) [C19] | – | completely abolished by PTX | could desensitize the receptor | could induce internalization of CCR6-EGFP | could induce internalization of CCR4-EGFP | – | completely abolished by PTX | could desensitize the receptor

— patent US7465453B2, “Polypeptide fragments of CKLF1” (Peking University, priority 2004, dated 2008)
